From patent publication US7741066B2, “Phosphorylated p68 RNA helicase as a marker for cancer and cancer metastasis” (priority 2005, dated 2010) come the findings set out here.

For series [1], the system named is p68 RNA helicase tyrosine phosphorylation. Nature of the series: Tyrosyl phosphorylation of p68 RNA helicase in cancer cells after treatment (immunoprecipitation with PAbp68, Western Blot with p-tyr-100). It counts as cell-based, human. On the technique in general: A western blot detects proteins with antibodies after separation by electrophoresis.
Description: After the tissue samples were homogenized, the protein extracts were made from the homogenized sample. The tissue was screened for phosphorylated p68 RNA helicase in two steps. In the first step, the polyclonal antibody PAbp68 was used to isolate p68 RNA helicase from the extracts. In the second step, the antibody p-tyr-100 was used to detect the phosphorylated p68 RNA helicase from the total isolated p68 RNA helicase by the Western Blot. The intensity of the Western Blot signal by the antibody p-tyr-100, in the second step, corresponds to the level of phosphorylated p68 RNA helicase in the sample.
The Western Blots were carried out using antibody p68-rgg (top panel in FIG. 3A-3D) and antibody p-tyr-100 (bottom panel in FIGS. 3A-3D). The p68 RNA helicase was immunoprecipitated by antibody PAbp68.
In series [2] the test system is p68 RNA helicase threonine phosphorylation. In words: Threonine phosphorylation of p68 RNA helicase in cancer cells after treatment (immunoprecipitation, Western Blot with 14B3). As to conditions: for threonine phosphorylation of p68 RNA helicase upon treatment: six different cancer cell lines, Western Blot 14B3; for threonine phosphorylation of p68 RNA helicase upon longer treatment: 30 minutes treatment, data not shown. The format is cell-based, human. How it is done: The presence of phosphorylated p68 RNA helicase in cultured cells or tissue samples was examined using immunoprecipitation followed by Western Blots. Immunoblotting also was also performed with a monoclonal antibody against p68 RNA helicase to show the equal amounts or levels of p68 (phosphorylated and unphosphorylated) loaded in the western blotting. Such Western Blots include the use of antibodies to phosphorylated p68 RNA helicase and sodium dodecyl sulphate polyacrylamide gel electrophoresis (SDS-PAGE). Immunoblotting also was performed with a monoclonal antibody against p68 RNA helicase to show the presence of a positive control protein in tumor and normal samples and to indicate that there was no evidence of protein degradation in any of the tissue samples.
A polyacrylamide gel system was employed for separation of proteins. The cell nuclear extracts (80 μl) were diluted to 200 μl with RIPA buffer (160 mM NaCl, 20 mM Tris-HCl, pH 7.5, 1 mM EDTA, 1 mM EGTA, 1 mM DTT, 0.1% Triton X-100, 1% sodium deoxycholate, 0.1% SDS, 1 mM sodium vanadate, and 1 mM PMSF). The antibody PAbp68 then was added to the mixture. The solution subsequently was incubated at 4° C. for 4 hours. Protein A agarose bead slurry (40 μl) then was added and the mixture underwent rotation. The beads were recovered and washed with 5×600 μl RIPA buffer with 0.08% SDS. The precipitated proteins were analyzed by SDS-PAGE followed by Western Blot.
The Western Blot analysis was performed with a commercially available ECL Western Blot and detection kit (Amersham Biosciences). The supernatant from the culture medium of hybridoma cells P68-rgg were used in the blotting experiments at a 5:1 dilution. The polyclonal antibody PAbp68 was used in 1:3000 dilution. The antibodies, PY100 and 14B3 were used with 1:2000 dilution.
The phosphorylation of p68 RNA helicase was investigated using HeLA S3, A549, HEL299, CCD-112CoN, HepG2, and MCF-7 cells. The HeLa S3 and A549 cells were grown in Ham's F12K medium supplemented with 10% fetal bovine serum. The HEL299, CCD-112CoN, HepG2, and MCF-7 cells were maintained in minimum essential medium supplemented with 10% fetal bovine serum. The culture medium contained 2 mM L-glutamine and Earle's BSS adjusted to contain 1.5 g/l of sodium bicarbonate, 0.1 mM of non-essential amino acids, and 1.0 mM sodium pyruvate. The Caco-2 cells were grown in a similar medium condition to that of HEL299 cells but supplemented with 20% fetal bovine serum. The RPMI 1788 and K562 cells were grown in Iscove's modified Dulbecco's medium supplemented with 10% fetal bovine serum. The HEK293 and Hs 578Bst cells were grown in modified Dulbecco's medium containing 10% fetal bovine serum. All cell culture medium contained penicillin (100 U/ml) and streptomycin (100 μg/ml). The cells were grown to 90% confluency prior to performing any experiment.
The phosphorylations of p68 RNA helicase responded differently to different anticancer treatments.
FIGS. 2A and 2B show Western Blots of immunoprecipitated cellular p68 RNA helicase from different cancer cells (indicated). The immuno-blots were carried out using antibody p68-rgg (FIG. 2, top panel in A and B), antibody p-tyr-100 (middle panel in A and B), and antibody 14B3 (FIG. 2, bottom panel in A and B). The + and − represent with or without TNF-α or TRAIL treatments. Tyrosine dephosphorylation and threonine phosphorylation of p68 RNA helicase was present in cancer cells upon the panel (A) TNF-α or panel (B) TRAIL treatments.

The mark [3] stands for this setting: six different cancer cell lines (A549, Caco-2, HepG2, K562, MCF-7, HeLa S3), Western Blot p-tyr-100.

With `Cc1ccc(NC(=O)c2ccc(CN3CCN(C)CC3)cc2)cc1Nc1nccc(-c2cccnc2)n1` [STI-571, reference compound], in series [1] (MCF-7 breast cancer cells), the “tyrosine phosphorylation of p68 RNA helicase upon treatment” value (“tyrosine phosphorylation” below) was “decreases in the tyrosine phosphorylation level rather than complete dephosphorylation”.

`CC(=O)O[C@H]1C(=O)[C@@]2(C)[C@H]([C@H](OC(=O)c3ccccc3)[C@]3(O)C[C@H](OC(=O)[C@H](O)[C@@H](NC(=O)c4ccccc4)c4ccccc4)C(C)=C1C3(C)C)[C@]1(OC(C)=O)CO[C@@H]1C[C@@H]2O` [TAXOL®, reference compound]: in series [1] (setting [3]), the “tyrosine phosphorylation” value was “tyrosyl dephosphorylation was not observed”. For the same molecule, the “threonine phosphorylation of p68 RNA helicase upon treatment” value in series [2] is “Threonine phosphorylation was not detected”.

`COc1cc([C@@H]2c3cc4c(cc3[C@@H](O[C@@H]3O[C@@H]5CO[C@@H](C)O[C@H]5[C@H](O)[C@H]3O)[C@H]3COC(=O)[C@H]23)OCO4)cc(OC)c1O` [etoposide, reference compound]: the “tyrosine phosphorylation” value in series [1] (setting [3]) is listed as “tyrosyl dephosphorylation was not observed”. In series [2], the “threonine phosphorylation of p68 RNA helicase upon treatment” value was “Threonine phosphorylation was not detected”.

TNF-α: the “tyrosyl phosphorylation of p68 RNA helicase upon treatment” value in series [1] (HeLa cells) is “could be dephosphorylated”. The “tyrosine phosphorylation” value in series [1] (setting [3]) is reported as “led to the dephosphorylation of p68 at tyrosine residue(s)”. Besides, in series [2], the “threonine phosphorylation of p68 RNA helicase upon longer treatment” value is listed as “quickly dephosphorylated again” and the “threonine phosphorylation of p68 RNA helicase upon treatment” value is given as “resulted in phosphorylation of p68 at threonine”.

For “TRAIL: TNF Related Apoptosis-Inducer Ligand”, in series [1] (setting [3]), the “tyrosine phosphorylation” value is listed as “led to the dephosphorylation of p68 at tyrosine residue(s)”. In series [2], the “threonine phosphorylation of p68 RNA helicase upon longer treatment” value is “quickly dephosphorylated again” and the “threonine phosphorylation of p68 RNA helicase upon treatment” value was “resulted in phosphorylation of p68 at threonine”.
